Data: US7070973B2, “Butyrylcholinesterase variants and methods of use” (priority 2000, dated 2006)
Substitutions are numbered along the chain they refer to. Names and notes keep the numbering of the source. Values joined by “and” are separate entries in the source; they are usually repeats but may differ in a detail not shown here. Equal entries are not always repeated. Where two headings read alike, the source gives them in different places.

Experiments:
cocaine toxicity = conditions: infusion of cocaine at 1 mg/kg/min, catecholamine levels standardized; cited from earlier work
[1] = Isotope tracer cocaine hydrolysis assay, Lineweaver-Burk plot; type: biochemical; conditions: 2 hour incubation at 37° C., x intercept of double-reciprocal plot
Excerpt: (§1) At the conclusion of the isotope tracer assay, an aliquot of the reaction mix is acidified in order to take advantage of the solubility difference between the product and the substrate at pH 3.0.

[2] = Gatley 1991; Xie et al. 1999; read-out: Km for cocaine hydrolysis, previously published values; cited from earlier work
[3] = Xie et al. 1999; cited from earlier work
[4] = Spectrophotometric (240 nm) cocaine binding and hydrolysis assay with purified butyrylcholinesterase variants; type: biochemical; conditions: for Cocaine Binding or Cocaine Hydrolysis (result in words): Table 4
Method: […]. Pharmacol. 41:1249–1254 (1991). Km values were determined in 0.1M potassium phosphate pH 7.0 at 30° C. for (−)-cocaine. Vmax values and Km values were calculated using Sigma Plot for Macintosh (Jandel Scientific, San Rafael, Calif.).
Once Vmax values and Km values were calculated, the number of active sites in each butyrylcholinesterase preparation was determined. The titration of active sites was performed with chlorpyrifos oxon (MET-674B, Chem Service, West Chester, Pa.), an inhibitor of butyrylcholinesterase. One molecule of chlorpyrifos oxon binds and inhibits one molecule of butyrylcholinesterase, which allows for calculation of the number of active sites. Based on the number of active sites, the kcat value for each variant was calculated (Table 3). […].

[5] = Microtiter [3H]-cocaine isotope tracer hydrolysis assay with immobilized butyrylcholinesterase variants; type: biochemical; conditions: for increase in cocaine hydrolysis activity compared to human butyrylcholinesterase: region 5 library variants, Examples II through VI; for enhanced cocaine hydrolase activity (library screen): region five library, hydrolysis of [3H]-cocaine
Excerpt: as §1
The supernatants isolated from each of the butyrylcholinesterase variant library clones contains variable butyrylcholinesterase enzyme concentrations.
At least three approaches are used to either increase the assay sensitivity or the assay signal.

[6] = stored at 4° C., after 18 months (Lynch et al.); cited from earlier work

COC(=O)[C@H]1[C@@H](OC(=O)c2ccccc2)C[C@@H]2CC[C@H]1N2C [cocaine]
LD90 (cocaine toxicity): 16 mg/kg

horse butyrylcholinesterase
Km [1]: ~37.6 µM
Km [2]: 38 µM and 45 µM

B1: A328Y (protein, UniProt P06276 29-602, looked up, variant A328Y)
Cholinesterase: EDDIIIATKNGKVRGMNLTVFGGTVTAFLGIPYAQPPLGRLRFKKPQSLTKWSDIWNATKYANSCCQNIDQSFPGFHGSEMWNPNTDLSEDCLYLNVWIPAPKPKNATVLIWIYGGGFQTGTSSLHVYDGKFLARVERVIVVSMNYRVGALGFLALPGNPEAPGNMGLFDQQLALQWVQKNIAAFGGNPKSVTLFGESAGAASVSLHLLSPGSHSLFTRAILQSGSFNAPWAVTSLYEARNRTLNLAKLTGCSRENETEIIKCLRNKDPQEILLNEAFVVPYGTPLSVNFGPTVDGDFLTDMPDILLELGQFKKTQILVGVNKDEGTYFLVYGAPGFSKDNNSIITRKEFQEGLKIFFPGVSEFGKESILFHYTDWVDDQRPENYREALGDVVGDYNFICPALEFTKKFSEWGNNAFFYYFEHRSSKLPWPEWMGVMHGYEIEFVFGLPLERRDNYTKAEEILSRSIVKRWANFAKYGNPNETQNNSTSWPVFKSTEQKYLTLNTESTRIMTKLRAQQCRFWTSFFPKVLEMTGNIDEAEWEWKAGFHRWNNYMMDWKNQFNDYTSKKESCVGL
increase in cocaine hydrolysis activity compared to human butyrylcholinesterase [3]: four
Km ([4]; (−)-cocaine, 0.1M potassium phosphate pH 7.0 at 30° C.): 9 µM
kcat (hydrolysis rate) ([4]; (−)-cocaine, active sites titrated with chlorpyrifos oxon): 0.17 s⁻¹
Hydrolyzes cocaine faster than wild-type ([4]; compared to wild-type butyrylcholinesterase): Hydrolyzes cocaine 4 times faster than wild-type

B2: G439L (protein, UniProt P06276 29-602, looked up, variant G439L)
Cholinesterase: B1 Cholinesterase with Y328A, G439L
Cocaine Binding or Cocaine Hydrolysis (result in words) [4]: No cocaine hydrolysis activity

B3: L286H (protein, UniProt P06276 29-602, looked up, variant L286H)
Cholinesterase: B1 Cholinesterase with L286H, Y328A
Cocaine Binding or Cocaine Hydrolysis (result in words) [4]: Not a cocaine hydrolase

B4: V288W (protein, UniProt P06276 29-602, looked up, variant V288W)
Cholinesterase: B1 Cholinesterase with V288W, Y328A
Cocaine Binding or Cocaine Hydrolysis (result in words) [4]: Not a cocaine hydrolase

B5: P285Q (protein)
chain: B1 Cholinesterase with P285Q, Y328A
modifications: Human Butyrylcholinesterase variant
increase in cocaine hydrolysis activity compared to human butyrylcholinesterase [5]: four and approximately four
enhanced cocaine hydrolase activity (library screen) [5]: enhanced cocaine hydrolase activity

B6: A328G (protein, UniProt P06276 29-602, looked up, variant A328G)
Cholinesterase: B1 Cholinesterase with Y328G
Cocaine Binding or Cocaine Hydrolysis (result in words) [4]: Not a cocaine hydrolase

B7: butyrylcholinesterase (protein, listed as Homo sapiens)
chain: B1 Cholinesterase with Y328A
original activity retained [6]: over 90%

B8: S224Y (protein, UniProt P06276 29-602, looked up, variant S224Y)
Cholinesterase: B1 Cholinesterase with S224Y, Y328A
Cocaine Binding or Cocaine Hydrolysis (result in words) [4]: No activity

B9: P285S (protein)
chain: B1 Cholinesterase with P285S, Y328A
modifications: Human Butyrylcholinesterase variant
increase in cocaine hydrolysis activity compared to human butyrylcholinesterase [5]: approximately three
enhanced cocaine hydrolase activity (library screen) [5]: enhanced cocaine hydrolase activity

B10: A328H (protein, UniProt P06276 29-602, looked up, variant A328H)
Cholinesterase: B1 Cholinesterase with Y328H
Cocaine Binding or Cocaine Hydrolysis (result in words) [4]: Not a cocaine hydrolase

B11: L286W (protein, UniProt P06276 29-602, looked up, variant L286W)
Cholinesterase: B1 Cholinesterase with L286W, Y328A
Cocaine Binding or Cocaine Hydrolysis (result in words) [4]: Not a cocaine hydrolase

B12: S287G (protein)
chain: B1 Cholinesterase with S287G, Y328A
modifications: Human Butyrylcholinesterase variant
increase in cocaine hydrolysis activity compared to human butyrylcholinesterase [5]: four
enhanced cocaine hydrolase activity (library screen) [5]: enhanced cocaine hydrolase activity
